Source: US20180273587A1 (AILERON THERAPEUTICS, published 2018)
Positions of bridges follow the written chain, without caps; N, C: chain ends. Non-standard residues stand in square brackets, D forms with d. 2Nal = N[C@@H](Cc1ccc2ccccc2c1)C(=O)O; hPhe = N[C@@H](CCc1ccccc1)C(=O)O; R8 = C=CCCCCCC[C@@](C)(N)C(=O)O; S5 = C=CCCC[C@](C)(N)C(=O)O

Tests used:
Test in all cases: Ki; method not stated; unit not printed (nM per Table 6)
MCL-1 = target: T1, MCL-1 (UniProt Q07820 172-327, limits assumed)
T1 construct: Target of the Ki columns; also called Myeloid cell leukemia 1

BCL-XL = target: T2, BCL-XL (UniProt Q07817 1-209)
T2 construct: Target of the Ki columns

BCL-2 = target: T3, BCL-2 (UniProt P10415 1-217, limits assumed)
T3 construct: Target of the Ki columns
T3 sequence (P10415 1-217 limits assumed): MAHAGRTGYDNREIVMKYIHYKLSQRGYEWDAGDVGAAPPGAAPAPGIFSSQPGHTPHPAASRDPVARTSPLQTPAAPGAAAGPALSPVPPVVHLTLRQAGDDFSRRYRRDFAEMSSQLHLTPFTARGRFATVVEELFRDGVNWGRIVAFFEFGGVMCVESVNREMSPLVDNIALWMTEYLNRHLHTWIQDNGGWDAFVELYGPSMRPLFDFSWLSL

T2 sequence (Q07817 1-209): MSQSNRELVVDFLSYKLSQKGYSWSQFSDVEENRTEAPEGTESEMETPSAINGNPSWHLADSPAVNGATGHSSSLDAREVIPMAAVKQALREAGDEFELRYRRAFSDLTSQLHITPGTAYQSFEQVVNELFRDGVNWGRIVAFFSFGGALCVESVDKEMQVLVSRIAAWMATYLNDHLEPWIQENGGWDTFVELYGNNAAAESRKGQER
T1 sequence (Q07820 172-327 limits assumed): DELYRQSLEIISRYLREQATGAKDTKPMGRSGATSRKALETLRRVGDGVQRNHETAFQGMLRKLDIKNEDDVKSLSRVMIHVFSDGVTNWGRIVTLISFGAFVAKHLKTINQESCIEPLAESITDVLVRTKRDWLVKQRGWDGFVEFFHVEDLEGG

| Ki (MCL-1) | Ki (BCL-XL) | Ki (BCL-2) | Binder |
| --- | --- | --- | --- |
| 13.7 nM | 55.3 nM | 144 nM | Ac-I[2Nal]IAAALR[R8]IGDAFN[S5]YYA-NH2 (staple 9-16; SMILES CC[C@H](C)[C@H](NC(C)=O)C(=O)N[C@@H](Cc1ccc2ccccc2c1)C(=O)N[C@H](C(=O)N[C@@H](C)C(=O)N[C@@H](C)C(=O)N[C@@H](C)C(=O)N[C@@H](CC(C)C)C(=O)N[C@@H](CCCNC(=N)N)C(=O)N[C@]1(C)CCCCCCC=CCCC[C@@](C)(C(=O)N[C@@H](Cc2ccc(O)cc2)C(=O)N[C@@H](Cc2ccc(O)cc2)C(=O)N[C@@H](C)C(N)=O)NC(=O)[C@H](CC(N)=O)NC(=O)[C@H](Cc2ccccc2)NC(=O)[C@H](C)NC(=O)[C@H](CC(=O)O)NC(=O)CNC(=O)[C@H]([C@@H](C)CC)NC1=O)[C@@H](C)CC, Row prints Ac-I2NalIAAALR$r8IGDAFN$YYA-NH2) [SEQ ID NO: 1732] |
| 3.6 nM | 67.8 nM | 117 nM | Ac-IWISAALR[R8]IGDAFN[S5]YYA-NH2 (staple 9-16; SMILES CC[C@H](C)[C@H](NC(C)=O)C(=O)N[C@@H](Cc1c[nH]c2ccccc12)C(=O)N[C@H](C(=O)N[C@@H](CO)C(=O)N[C@@H](C)C(=O)N[C@@H](C)C(=O)N[C@@H](CC(C)C)C(=O)N[C@@H](CCCNC(=N)N)C(=O)N[C@]1(C)CCCCCCC=CCCC[C@@](C)(C(=O)N[C@@H](Cc2ccc(O)cc2)C(=O)N[C@@H](Cc2ccc(O)cc2)C(=O)N[C@@H](C)C(N)=O)NC(=O)[C@H](CC(N)=O)NC(=O)[C@H](Cc2ccccc2)NC(=O)[C@H](C)NC(=O)[C@H](CC(=O)O)NC(=O)CNC(=O)[C@H]([C@@H](C)CC)NC1=O)[C@@H](C)CC) [SEQ ID NO: 1733] |
| 17.2 nM | 110 nM | 125 nM | Ac-IWIFAALR[R8]IGDAFN[S5]YYA-NH2 (staple 9-16; SMILES CC[C@H](C)[C@H](NC(C)=O)C(=O)N[C@@H](Cc1c[nH]c2ccccc12)C(=O)N[C@H](C(=O)N[C@@H](Cc1ccccc1)C(=O)N[C@@H](C)C(=O)N[C@@H](C)C(=O)N[C@@H](CC(C)C)C(=O)N[C@@H](CCCNC(=N)N)C(=O)N[C@]1(C)CCCCCCC=CCCC[C@@](C)(C(=O)N[C@@H](Cc2ccc(O)cc2)C(=O)N[C@@H](Cc2ccc(O)cc2)C(=O)N[C@@H](C)C(N)=O)NC(=O)[C@H](CC(N)=O)NC(=O)[C@H](Cc2ccccc2)NC(=O)[C@H](C)NC(=O)[C@H](CC(=O)O)NC(=O)CNC(=O)[C@H]([C@@H](C)CC)NC1=O)[C@@H](C)CC) [SEQ ID NO: 1735] |
| 19.7 nM | 96.2 nM | 170 nM | Ac-IWILAALR[R8]IGDAFN[S5]YYA-NH2 (staple 9-16; SMILES CC[C@H](C)[C@H](NC(C)=O)C(=O)N[C@@H](Cc1c[nH]c2ccccc12)C(=O)N[C@H](C(=O)N[C@@H](CC(C)C)C(=O)N[C@@H](C)C(=O)N[C@@H](C)C(=O)N[C@@H](CC(C)C)C(=O)N[C@@H](CCCNC(=N)N)C(=O)N[C@]1(C)CCCCCCC=CCCC[C@@](C)(C(=O)N[C@@H](Cc2ccc(O)cc2)C(=O)N[C@@H](Cc2ccc(O)cc2)C(=O)N[C@@H](C)C(N)=O)NC(=O)[C@H](CC(N)=O)NC(=O)[C@H](Cc2ccccc2)NC(=O)[C@H](C)NC(=O)[C@H](CC(=O)O)NC(=O)CNC(=O)[C@H]([C@@H](C)CC)NC1=O)[C@@H](C)CC) [SEQ ID NO: 1734] |
| 2.7 nM | 16.6 nM | 38.9 nM | Ac-IWIAQALR[R8]IGDA[hPhe]N[S5]YYA-NH2 (staple 9-16; SMILES CC[C@H](C)[C@H](NC(C)=O)C(=O)N[C@@H](Cc1c[nH]c2ccccc12)C(=O)N[C@H](C(=O)N[C@@H](C)C(=O)N[C@@H](CCC(N)=O)C(=O)N[C@@H](C)C(=O)N[C@@H](CC(C)C)C(=O)N[C@@H](CCCNC(=N)N)C(=O)N[C@]1(C)CCCCCCC=CCCC[C@@](C)(C(=O)N[C@@H](Cc2ccc(O)cc2)C(=O)N[C@@H](Cc2ccc(O)cc2)C(=O)N[C@@H](C)C(N)=O)NC(=O)[C@H](CC(N)=O)NC(=O)[C@H](CCc2ccccc2)NC(=O)[C@H](C)NC(=O)[C@H](CC(=O)O)NC(=O)CNC(=O)[C@H]([C@@H](C)CC)NC1=O)[C@@H](C)CC) [SEQ ID NO: 1743] |
| 2.3 nM | 14.5 nM | 17.7 nM | Ac-IWIAQALR[R8]IGDAWN[S5]YYA-NH2 (staple 9-16; SMILES CC[C@H](C)[C@H](NC(C)=O)C(=O)N[C@@H](Cc1c[nH]c2ccccc12)C(=O)N[C@H](C(=O)N[C@@H](C)C(=O)N[C@@H](CCC(N)=O)C(=O)N[C@@H](C)C(=O)N[C@@H](CC(C)C)C(=O)N[C@@H](CCCNC(=N)N)C(=O)N[C@]1(C)CCCCCCC=CCCC[C@@](C)(C(=O)N[C@@H](Cc2ccc(O)cc2)C(=O)N[C@@H](Cc2ccc(O)cc2)C(=O)N[C@@H](C)C(N)=O)NC(=O)[C@H](CC(N)=O)NC(=O)[C@H](Cc2c[nH]c3ccccc23)NC(=O)[C@H](C)NC(=O)[C@H](CC(=O)O)NC(=O)CNC(=O)[C@H]([C@@H](C)CC)NC1=O)[C@@H](C)CC) [SEQ ID NO: 1742] |
| 4.4 nM | 19.1 nM | 35.1 nM | IWIAQALRAIGDAANAYYA (N-terminal Ac; $r8 at 9 and $ at 16 (crosslinked); 2Nal at 14; C-terminal NH2) [SEQ ID NO: 1746] |
| 11.6 nM | 37.9 nM | 75.8 nM | Ac-IWIALALR[R8]IGDAFN[S5]YYA-NH2 (staple 9-16; SMILES CC[C@H](C)[C@H](NC(C)=O)C(=O)N[C@@H](Cc1c[nH]c2ccccc12)C(=O)N[C@H](C(=O)N[C@@H](C)C(=O)N[C@@H](CC(C)C)C(=O)N[C@@H](C)C(=O)N[C@@H](CC(C)C)C(=O)N[C@@H](CCCNC(=N)N)C(=O)N[C@]1(C)CCCCCCC=CCCC[C@@](C)(C(=O)N[C@@H](Cc2ccc(O)cc2)C(=O)N[C@@H](Cc2ccc(O)cc2)C(=O)N[C@@H](C)C(N)=O)NC(=O)[C@H](CC(N)=O)NC(=O)[C@H](Cc2ccccc2)NC(=O)[C@H](C)NC(=O)[C@H](CC(=O)O)NC(=O)CNC(=O)[C@H]([C@@H](C)CC)NC1=O)[C@@H](C)CC) [SEQ ID NO: 1736] |
| 20.3 nM | 51.8 nM | 102 nM | Ac-IWIAQALR[R8]IGDAFN[S5]YAA-NH2 (staple 9-16; SMILES CC[C@H](C)[C@H](NC(C)=O)C(=O)N[C@@H](Cc1c[nH]c2ccccc12)C(=O)N[C@H](C(=O)N[C@@H](C)C(=O)N[C@@H](CCC(N)=O)C(=O)N[C@@H](C)C(=O)N[C@@H](CC(C)C)C(=O)N[C@@H](CCCNC(=N)N)C(=O)N[C@]1(C)CCCCCCC=CCCC[C@@](C)(C(=O)N[C@@H](Cc2ccc(O)cc2)C(=O)N[C@@H](C)C(=O)N[C@@H](C)C(N)=O)NC(=O)[C@H](CC(N)=O)NC(=O)[C@H](Cc2ccccc2)NC(=O)[C@H](C)NC(=O)[C@H](CC(=O)O)NC(=O)CNC(=O)[C@H]([C@@H](C)CC)NC1=O)[C@@H](C)CC) [SEQ ID NO: 1754] |
